Reference: patent US11840574B2, “Anti-DR5 antibody and use thereof” (DONG-A ST CO., LTD., priority 2017, dated 2023)

Key:
[1] = system: human pancreatic cancer cell line Panc-1; test: Tumor cell death assay, co-treatment with gemcitabine, Panc-1; type: cell-based; details: Panc-1, gemcitabine 3 nM-300 nM, 48 to 72 hours
Protocol: (§1) Effects obtained from co-treatment with the above constructed antibody and gemcitabine were evaluated using in vitro tumor cell death assay.
(§2) The human pancreatic cancer cell lines Miapaca-2 (ATCC, U.S.A.) and Panc-1 (ATCC, U.S.A.) were each suspended at a density of 1×10^5 cells/ml. The suspensions were added in an amount of 50 μl to each well of 96-well cell culture plates and incubated for 16-24 hours in a constant temperature and humidity chamber. The cancer cell lines were treated with the anti-DR5 antibodies of the present disclosure including D0 in combination with certain concentrations (3 nM-300 nM) of gemcitabine and cultured for 48 to 72 hours. The cells were further incubated for 1 to 3 hours after addition of 10 μl of a resazurin solution (Invitrogen, U.S.A.) per well. When the reaction proceeded to a predetermined level, fluorescence was read at 590 nm using a spectrophotometer (Molecular Device). Cell viability was calculated as the percentage of relative fluorescence units (RFU) of a test substance-treated group (treated RFU) to relative fluorescence units of a culture medium-treated group (untreated RFU) (Cell viability (%)=treated RFU/Untreated RFU×100). The results are depicted in FIGS. 6a to 6r. Representative results are depicted in FIGS. 11a (Miapaca-2) and 11b (Panc-1). For comparison, the control antibody AP was treated in the same manner

caspase-3/7 [2] = test: Intracellular caspase activity (Apo-ONE Caspase-3/7), Miapaca-2; type: cell-based, human; details: Miapaca-2, Ab alone or Ab linked, 4 hours
Protocol: (§3) In order to investigate the cell death mechanism thereof, the constructed antibodies were assayed for caspase activity. The activity of caspase-3/7 was measured using Apo-ONE® Homogeneous Caspase-3/7 Assay kit (Promega, U.S.A.). In this assay, the human colorectal cancer cell line Colo205 (ATCC, U.S.A.), the human pancreatic cancer cell line Miapaca-2 (ATCC, U.S.A.), and the lung cancer cell line H2122 (ATCC, U.S.A.) were employed. A suspension of each tumor cell line having a concentration of 1×10^5 cells/ml was plated at a volume of 50 μl per well into 96-well cell culture plates and cultured for 16-24 hours in a constant temperature and humidity chamber. The cells were treated with predetermined concentrations (0.01-10000 ng/ml) of the antibody alone (Ab alone) or in combination with a crosslinking antibody (anti-human Fc) (Serotec, U.S.A.) (Ab linked) and then cultured for 4 hours. […] When the reaction reached a predetermined level, fluorescence was read at 520 nm using a spectrophotometer (Molecular Device). Caspase activity was calculated as a fold increase of relative fluorescence units (RFU) of a test substance-treated group (treated RFU) to over the relative fluorescence units of a culture medium-treated group (untreated RFU) (Caspase activity=treated RFU/Untreated RFU). […]

Human DR5 = Human DR5 (Homo sapiens, UniProt O14763); test: Binding affinity of antibody to human DR5 (BIAcore, CM5 chip)
Protocol: In order to measure affinity, human DR5 was coupled to carboxylated dextran biosensor chips (CM5, GE) according to the manufacturer's instruction. Association and dissociation rates were assessed by injecting IgG proteins that were 2-fold serially diluted to 5 nM, 2.5 nM, 1.25 nM, 0.625 nM, 0.313 nM, and 0.156 nM.
Association and dissociation rates were depicted in association and dissociation sensorgrams and calculated using a simple 1:1 Langmuir binding model (BIAcore X100 Evaluation Software, ver. 2.0). The equilibrium dissociation constants (KD), which is the ratio of dissociation constant (Kd) to association constant (Ka), were confirmed to be in the sub-nanomolar range. Measurements of the binding of antibody D0 and DA1 to DA35 of the present disclosure to DR5 are given in Table 11 below (antibody names are given as the names of the clones from which the antibodies were derived). A representative sensorgram for D0 is depicted in FIG. 1.

caspase-3/7 [3] = test: Intracellular caspase activity (Apo-ONE Caspase-3/7), H2122; type: cell-based, human; details: H2122, Ab alone or Ab linked, 4 hours
Protocol: as §3

caspase-3/7 [4] = test: Intracellular caspase activity (Apo-ONE Caspase-3/7), Colo205; type: cell-based, human; details: Colo205, Ab alone or Ab linked, 4 hours
Protocol: as §3

[5] = system: human pancreatic cancer cell line Miapaca-2; test: Tumor cell death assay, co-treatment with gemcitabine, Miapaca-2; type: cell-based; details: Miapaca-2, gemcitabine 3 nM-300 nM, 48 to 72 hours
Protocol: as §1, §2

activity of caspase-3/7 (caspase-3/7 [2]): increase in the activity of casapse-3/7
Ka(1/Ms) (Human DR5; association rate, Human DR5, 1:1 Langmuir binding model): 1.21 × 10^06 1/Ms
Kd (Human DR5; equilibrium dissociation constant, Human DR5): 0.0698 nM
activity of caspase-3/7 (caspase-3/7 [3]): increase in the activity of casapse-3/7
activity of caspase-3/7 (caspase-3/7 [4]): increase in the activity of casapse-3/7
B1: DA29: humanized or deimmunized variant of parental clone D0; CDRs SEQ ID NO 1, 2, 7 / 4, 10, 13 (antibody, V domains shown)
VH: AVTLDESGGGLQTPGGGLSLVCKGSGFTFSSFNMLWVRQAPGKGLEWVAGIGKSDRYTGYGSAVKGRATISRDDGQSTARLQLNNLRAEDTGTYYCVKDAGSGCGSGGWTGACIDTWGHGTEVIVSS
VL: LTQPSSVSANLGGTVEITCSGGDSYAGSYYYGWYQQKAPGSAPVTVIYNNNNRPSNIPSRFSGSTSGSTATLTITGVQAEDEATYFCGSRDSSYVGIFGAGTTLTVL
apoptotic activity upon co-treatment with gemcitabine relative to each individual substance [1]: increased apoptotic activity
apoptotic activity upon co-treatment with gemcitabine relative to each individual substance [5]: increased apoptotic activity
